We go through 125 sequences from the supplement of paper PMC9112550, “Optimization of the antimicrobial peptide Bac7 by deep mutational scanning” (BMC Biology, 2022).

The data set has as its system Escherichia coli TOP10. The experiment in a line: shrunken log2 fold change of peptide-encoding DNA abundance (4.5 h post-induction vs induction); higher = less antimicrobial activity (less host growth inhibition). The following applies: time post-induction: 4.5 h; library: site-saturation at positions 5, 18, 19, 20.
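Also: peptides expressed intracellularly from a pBAD plasmid library in pooled LB shake-flask culture, induced with 0.3% L-arabinose, DNA abundance read by NGS, three biological replicates, DESeq2 with apeglm shrinkage.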

As for RRIRKRPPRLPRPRPRPWHVPRP, the “shrunken log2 fold change” value was -1.06.
As to RRIRFRPPRLPRPRPRPWDIPRP, the “shrunken log2 fold change” value is -0.0124.
To RRIRQRPPRLPRPRPRPGTTPRP belongs 0.155.
Regarding RRIRQRPPRLPRPRPRPSNLPRP, the “shrunken log2 fold change” value was -0.11.
To RRIRLRPPRLPRPRPRPEDPPRP belongs 0.0223; to RRIRYRPPRLPRPRPRPICRPRP, -0.226; to RRIRRRPPRLPRPRPRPAWKPRP, 0.2.
As for RRIRIRPPRLPRPRPRPYHKPRP, the “shrunken log2 fold change” value is -0.165.
Regarding RRIRYRPPRLPRPRPRPGPEPRP, the “shrunken log2 fold change” value was determined as 0.0444.
For the sequence RRIRCRPPRLPRPRPRPRFKPRP, the “shrunken log2 fold change” value is -0.00257.
As for RRIRVRPPRLPRPRPRPKKLPRP, the “shrunken log2 fold change” value is -0.0765.
For the sequence RRIRRRPPRLPRPRPRPTCQPRP, the “shrunken log2 fold change” value was 0.775.
Under RRIRSRPPRLPRPRPRPFSWPRP stands -0.197; under RRIRPRPPRLPRPRPRPCHNPRP, 0.156.
For the sequence RRIRPRPPRLPRPRPRPEWSPRP, the “shrunken log2 fold change” value is -0.0838.
To RRIRDRPPRLPRPRPRPIQTPRP belongs 0.00408.
Consider RRIRVRPPRLPRPRPRPFYMPRP, for which the “shrunken log2 fold change” value is -0.136.
As for RRIRNRPPRLPRPRPRPQQQPRP, the “shrunken log2 fold change” value worked out at 0.103.
To RRIRTRPPRLPRPRPRPAIMPRP belongs -0.0824; to RRIRERPPRLPRPRPRPQPYPRP, -0.43.
On to RRIRCRPPRLPRPRPRPVMAPRP, for which the “shrunken log2 fold change” value was -0.354.
With RRIRDRPPRLPRPRPRPCSHPRP, the “shrunken log2 fold change” value was -0.0198.
To RRIRIRPPRLPRPRPRPYEFPRP belongs 0.00826; to RRIRVRPPRLPRPRPRPADEPRP, -0.0284.
For RRIRVRPPRLPRPRPRPQKCPRP, the “shrunken log2 fold change” value was -0.0983.
To RRIRARPPRLPRPRPRPNFSPRP belongs -0.0677; to RRIRTRPPRLPRPRPRPAKEPRP, -0.0337.
Consider RRIRRRPPRLPRPRPRPGNLPRP, for which the “shrunken log2 fold change” value stood at 0.0367.
As to RRIRRRPPRLPRPRPRPFHSPRP, the “shrunken log2 fold change” value was determined as 0.00922.
Consider RRIRGRPPRLPRPRPRPVNCPRP, for which the “shrunken log2 fold change” value is 0.139.
Consider RRIRQRPPRLPRPRPRPQSVPRP, for which the “shrunken log2 fold change” value worked out at 0.0191.
To RRIRWRPPRLPRPRPRPVYYPRP belongs -0.412; to RRIRVRPPRLPRPRPRPNSFPRP, -0.0668.
Under RRIRTRPPRLPRPRPRPFTTPRP stands -0.0286; under RRIRARPPRLPRPRPRPMMQPRP, 0.185; under RRIRPRPPRLPRPRPRPPKMPRP, 0.401.
With RRIRPRPPRLPRPRPRPRPFPRP, the “shrunken log2 fold change” value was found to be 0.248.
Under RRIRTRPPRLPRPRPRPHPTPRP stands 0.106.
For RRIRQRPPRLPRPRPRPNAYPRP, the “shrunken log2 fold change” value is -0.279.
In the case of RRIRWRPPRLPRPRPRPSKKPRP, the “shrunken log2 fold change” value worked out at 0.0769.
Take RRIRDRPPRLPRPRPRPKCFPRP: the “shrunken log2 fold change” value was found to be 0.0766.
For RRIRLRPPRLPRPRPRPKRHPRP, the “shrunken log2 fold change” value is 0.208.
For the sequence RRIRWRPPRLPRPRPRPYAHPRP, the “shrunken log2 fold change” value is -0.056.
For RRIRDRPPRLPRPRPRPLSVPRP, the “shrunken log2 fold change” value was -0.0465.
On to RRIRKRPPRLPRPRPRPQPMPRP, for which the “shrunken log2 fold change” value worked out at 0.462.
To RRIRIRPPRLPRPRPRPMYQPRP belongs -0.862.
As to RRIRWRPPRLPRPRPRPGIKPRP, the “shrunken log2 fold change” value was -0.168.
Consider RRIRHRPPRLPRPRPRPGGAPRP, for which the “shrunken log2 fold change” value turned out to be 0.311.
Under RRIRMRPPRLPRPRPRPQACPRP stands -0.12.
Turning to RRIRDRPPRLPRPRPRPNTEPRP, the “shrunken log2 fold change” value was -0.0682.
Under RRIRWRPPRLPRPRPRPPHQPRP stands 0.235; under RRIRPRPPRLPRPRPRPNCDPRP, -0.257; under RRIRWRPPRLPRPRPRPDYNPRP, -0.288.
As for RRIRFRPPRLPRPRPRPCDWPRP, the “shrunken log2 fold change” value is -0.0151.
Consider RRIRGRPPRLPRPRPRPFMCPRP, for which the “shrunken log2 fold change” value turned out to be 0.224.
To RRIRARPPRLPRPRPRPLWKPRP belongs 0.121.
Turning to RRIRPRPPRLPRPRPRPGCYPRP, the “shrunken log2 fold change” value stood at 0.189.
As to RRIRYRPPRLPRPRPRPYGAPRP, the “shrunken log2 fold change” value was -0.202.
Turning to RRIRTRPPRLPRPRPRPLCLPRP, the “shrunken log2 fold change” value was -0.433.
In the case of RRIRQRPPRLPRPRPRPSAKPRP, the “shrunken log2 fold change” value is 0.104.
Under RRIRYRPPRLPRPRPRPTTHPRP stands -0.647; under RRIRCRPPRLPRPRPRPNVLPRP, -0.464; under RRIRIRPPRLPRPRPRPVLQPRP, 0.103.
As for RRIRKRPPRLPRPRPRPVQPPRP, the “shrunken log2 fold change” value was found to be 0.0838.
Take RRIRDRPPRLPRPRPRPPFGPRP: the “shrunken log2 fold change” value was 0.225.
Consider RRIRYRPPRLPRPRPRPVSIPRP, for which the “shrunken log2 fold change” value was -0.821.
RRIRDRPPRLPRPRPRPPTWPRP: the “shrunken log2 fold change” value worked out at 0.291.
Turning to RRIRQRPPRLPRPRPRPVGYPRP, the “shrunken log2 fold change” value was found to be 0.101.
For the sequence RRIRSRPPRLPRPRPRPRHMPRP, the “shrunken log2 fold change” value is -0.0166.
Under RRIRYRPPRLPRPRPRPTKKPRP stands 0.113; under RRIRMRPPRLPRPRPRPWARPRP, 0.306.
In the case of RRIRYRPPRLPRPRPRPAQYPRP, the “shrunken log2 fold change” value was -0.562.
Turning to RRIRGRPPRLPRPRPRPAYPPRP, the “shrunken log2 fold change” value is -0.0884.
RRIRRRPPRLPRPRPRPCFQPRP: the “shrunken log2 fold change” value was -0.0758.
RRIRCRPPRLPRPRPRPVREPRP: the “shrunken log2 fold change” value amounted to 0.386.
For RRIRIRPPRLPRPRPRPSIMPRP, the “shrunken log2 fold change” value was -0.469.
Take RRIRARPPRLPRPRPRPYMRPRP: the “shrunken log2 fold change” value was -0.0199.
Regarding RRIRLRPPRLPRPRPRPECYPRP, the “shrunken log2 fold change” value was -0.235.
RRIRDRPPRLPRPRPRPLPNPRP: the “shrunken log2 fold change” value is -0.234.
For the sequence RRIRQRPPRLPRPRPRPQDQPRP, the “shrunken log2 fold change” value is -0.276.
Under RRIRSRPPRLPRPRPRPCFHPRP stands -0.749; under RRIRKRPPRLPRPRPRPQTGPRP, 0.0141.
On to RRIRPRPPRLPRPRPRPFKTPRP, for which the “shrunken log2 fold change” value was -0.199.
Under RRIRQRPPRLPRPRPRPQDLPRP stands -0.243; under RRIRSRPPRLPRPRPRPVDNPRP, -0.493; under RRIRTRPPRLPRPRPRPLNIPRP, -0.36.
With RRIRNRPPRLPRPRPRPIEMPRP, the “shrunken log2 fold change” value was -0.141.
Under RRIRTRPPRLPRPRPRPWHGPRP stands -0.111; under RRIRCRPPRLPRPRPRPYESPRP, 0.0203; under RRIRMRPPRLPRPRPRPTTEPRP, 0.897.
To RRIRHRPPRLPRPRPRPRVLPRP belongs -0.0249; to RRIRTRPPRLPRPRPRPSSAPRP, -0.172.
For the sequence RRIRNRPPRLPRPRPRPNVEPRP, the “shrunken log2 fold change” value is -0.0627.
With RRIRVRPPRLPRPRPRPHWHPRP, the “shrunken log2 fold change” value is -0.0411.
To RRIRSRPPRLPRPRPRPWCDPRP belongs -0.238.
With RRIRRRPPRLPRPRPRPYFQPRP, the “shrunken log2 fold change” value was -0.189.
As for RRIRDRPPRLPRPRPRPHSTPRP, the “shrunken log2 fold change” value was -0.0545.
To RRIRVRPPRLPRPRPRPFPCPRP belongs -0.00113; to RRIRHRPPRLPRPRPRPPIKPRP, -0.16; to RRIRSRPPRLPRPRPRPPILPRP, 0.0371.
Consider RRIRLRPPRLPRPRPRPKDSPRP, for which the “shrunken log2 fold change” value is -0.139.
For RRIRRRPPRLPRPRPRPTEPPRP, the “shrunken log2 fold change” value is 0.4.
Turning to RRIRNRPPRLPRPRPRPLDVPRP, the “shrunken log2 fold change” value was -0.251.
For RRIRPRPPRLPRPRPRPCCPPRP, the “shrunken log2 fold change” value was -0.377.
Turning to RRIRIRPPRLPRPRPRPDWNPRP, the “shrunken log2 fold change” value was -0.993.
With RRIRDRPPRLPRPRPRPMVYPRP, the “shrunken log2 fold change” value amounted to 0.225.
Turning to RRIRPRPPRLPRPRPRPRKPPRP, the “shrunken log2 fold change” value was -0.0217.
In the case of RRIRGRPPRLPRPRPRPGTIPRP, the “shrunken log2 fold change” value was 0.00615.
Take RRIRERPPRLPRPRPRPKQAPRP: the “shrunken log2 fold change” value came out at 0.156.
With RRIRCRPPRLPRPRPRPGIHPRP, the “shrunken log2 fold change” value is -0.405.
Regarding RRIRARPPRLPRPRPRPVHIPRP, the “shrunken log2 fold change” value was -0.177.
On to RRIRPRPPRLPRPRPRPLHMPRP, for which the “shrunken log2 fold change” value was -0.342.
Take RRIRMRPPRLPRPRPRPMWPPRP: the “shrunken log2 fold change” value amounted to 0.0917.
As for RRIRLRPPRLPRPRPRPFATPRP, the “shrunken log2 fold change” value was -0.0878.
In the case of RRIRARPPRLPRPRPRPMPIPRP, the “shrunken log2 fold change” value stood at 0.708.
Turning to RRIRSRPPRLPRPRPRPRDTPRP, the “shrunken log2 fold change” value was 0.0657.
On to RRIRMRPPRLPRPRPRPVQGPRP, for which the “shrunken log2 fold change” value turned out to be 0.0203.
Take RRIRVRPPRLPRPRPRPFDEPRP: the “shrunken log2 fold change” value was -0.242.
To RRIRMRPPRLPRPRPRPEYAPRP belongs 0.0325.
Take RRIRKRPPRLPRPRPRPCRGPRP: the “shrunken log2 fold change” value is -0.115.
As to RRIRWRPPRLPRPRPRPKFPPRP, the “shrunken log2 fold change” value came to 0.944.
Regarding RRIRARPPRLPRPRPRPCDKPRP, the “shrunken log2 fold change” value was -0.152.
RRIRTRPPRLPRPRPRPPPWPRP: the “shrunken log2 fold change” value is 0.614.
Take RRIRYRPPRLPRPRPRPYHRPRP: the “shrunken log2 fold change” value is -0.236.
On to RRIRLRPPRLPRPRPRPMEVPRP, for which the “shrunken log2 fold change” value was -0.0152.
